The values below come from patent publication US20180092961.

The target in data set [1] is calf thymus histone H4 (Roche) (UniProt P62803).
The test system of data set [2] is murine histone H2A released from activated RAW264.7 macrophages.
The target of data set [3] is calf thymus histone H3 (Roche) (UniProt P68432).
Data set [4] addresses murine histone H3 (UniProt P68433).
Data set [5] has as its target murine histone H4 released from activated RAW264.7 macrophages (UniProt P62806).

As for “human recombinant activated protein C (Xigris)”, in data set [1], the “cleavage in a purified system, SDS-PAGE” value was “APC cleaved histone H3 and H4 in a dose dependent fashion”; the “cleavage, SDS-PAGE” value is “Purified histone H4 was also cleaved by APC and a cluster of 4-7 KD fragments could be found on SDS-PAGE”. For the same substance, the “new protein bands in conditioned medium in the presence of APC, MS/MS after tryptic digestion” value in data set [2] was “three peptide sequences ... in this protein band that matchs the murine histone H2A protein sequence (amino acids 21-29, 82-88 and 100-118)”. Besides, in data set [3], the “cleavage in a purified system, SDS-PAGE” value was “APC cleaved histone H3 and H4 in a dose dependent fashion”. The “new protein bands in conditioned medium in the presence of APC, Edman sequencing” value in data set [4] is listed as “The N-terminal sequence of the 13 kD band protein was KSAPATGGV (SEQ ID NO:15) which matches the murine histone H3 internal sequence (Lys27-Lys36)”. Further, in data set [5], the “cleavage, Western blot of conditioned medium” value was “histone H4 was released into the conditioned medium and was cleaved by APC”; the “new protein bands in conditioned medium in the presence of APC, Edman sequencing” value was “N-terminal sequence of the 10 kD band protein which matches the murine histone H4 internal sequence (Val21-Ile34)”.
